Measurements published in paper PMC7305299, “Nonsense-mediated mRNA decay factor UPF1 promotes aggresome formation” (Nature Communications, 2020).

Biological target: T1, FLAG-UPF1-HP (UniProt Q92900-2 1-1118, G495R | G497E, hyperphosphorylated in cells (detected with an anti-phospho-(S/T)Q antibody); sites not stated)
T1 construct: UPF1 with G495R and G497E in the helicase domain; also called FLAG-UPF1-(G495R/G497E); hyperphosphorylated UPF1; source: HEK293T, transiently transfected (pcDNA3-FLAG-UPF1-HP), in RNase A-treated cell extract
T1 sequence (looked up): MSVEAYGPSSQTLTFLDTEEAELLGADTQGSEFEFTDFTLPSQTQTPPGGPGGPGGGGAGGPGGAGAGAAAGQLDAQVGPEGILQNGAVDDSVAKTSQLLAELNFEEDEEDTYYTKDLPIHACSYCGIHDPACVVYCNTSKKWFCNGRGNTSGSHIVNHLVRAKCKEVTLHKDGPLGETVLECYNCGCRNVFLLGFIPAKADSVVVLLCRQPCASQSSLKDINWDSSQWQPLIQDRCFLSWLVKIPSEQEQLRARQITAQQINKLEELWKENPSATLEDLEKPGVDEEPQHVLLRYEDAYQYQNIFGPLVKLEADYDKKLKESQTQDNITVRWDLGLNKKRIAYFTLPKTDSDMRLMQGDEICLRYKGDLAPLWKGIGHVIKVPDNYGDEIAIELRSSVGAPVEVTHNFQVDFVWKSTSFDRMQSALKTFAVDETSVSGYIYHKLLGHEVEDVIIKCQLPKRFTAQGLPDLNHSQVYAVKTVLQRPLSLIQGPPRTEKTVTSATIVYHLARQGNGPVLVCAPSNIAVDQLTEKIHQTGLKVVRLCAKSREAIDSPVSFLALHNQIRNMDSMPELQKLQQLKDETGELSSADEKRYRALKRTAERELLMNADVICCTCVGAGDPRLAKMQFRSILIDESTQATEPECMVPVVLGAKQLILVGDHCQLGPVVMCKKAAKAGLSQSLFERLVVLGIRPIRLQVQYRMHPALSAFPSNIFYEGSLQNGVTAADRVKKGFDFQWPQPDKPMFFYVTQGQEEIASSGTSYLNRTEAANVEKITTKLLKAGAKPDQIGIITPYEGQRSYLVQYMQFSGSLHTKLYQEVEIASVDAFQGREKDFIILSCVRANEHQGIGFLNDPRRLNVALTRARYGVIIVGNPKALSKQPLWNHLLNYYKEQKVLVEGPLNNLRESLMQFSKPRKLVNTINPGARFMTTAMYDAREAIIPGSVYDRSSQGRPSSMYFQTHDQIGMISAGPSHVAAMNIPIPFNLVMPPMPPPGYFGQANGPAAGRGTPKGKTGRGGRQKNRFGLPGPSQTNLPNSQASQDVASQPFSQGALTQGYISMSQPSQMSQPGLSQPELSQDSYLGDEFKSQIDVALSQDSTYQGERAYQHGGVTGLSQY
Test: co-IP; anti-FLAG IP of FLAG-UPF1 (WT or a variant) from RNase A-treated extracts of transiently transfected HEK293T cells; cells treated with DMSO or MG132 for 12 h (Fig. 5a,b), for polypeptidyl-puro with MG132 12 h and puromycin 1 h (Fig. 5d), with or without eEF1A1 siRNA (Fig. 5e); NET-2 buffer, 4 °C; western blotting
Conditions: partners not purified

fold more co-immunopurified than with UPF1-WT or UPF1-HP-12A: ~5 fold
B1: DCP1A, cellular (natural protein, human (endogenous in HEK293T), UniProt Q9NPI6 1-582, looked up)
chain: MEALSRAGQEMSLAALKQHDPYITSIADLTGQVALYTFCPKANQWEKTDIEGTLFVYRRSASPYHGFTIVNRLNMHNLVEPVNKDLEFQLHEPFLLYRNASLSIYSIWFYDKNDCHRIAKLMADVVEEETRRSQQAARDKQSPSQANGCSDHRPIDILEMLSRAKDEYERNQMGDSNISSPGLQPSTQLSNLGSTETLEEMPSGSQDKSAPSGHKHLTVEELFGTSLPKEQPAVVGLDSEEMERLPGDASQKEPNSFLPFPFEQLGGAPQSETLGVPSAAHHSVQPEITTPVLITPASITQSNEKHAPTYTIPLSPVLSPTLPAEAPTAQVPPSLPRNSTMMQAVKTTPRQRSPLLNQPVPELSHASLIANQSPFRAPLNVTNTAGTSLPSVDLLQKLRLTPQHDQIQTQPLGKGAMVASFSPAAGQLATPESFIEPPSKTAAARVAASASLSNMVLAPLQSMQQNQDPEVFVQPKVLSSAIPVAGAPLVTATTTAVSSVLLAPSVFQQTVTRSSDLERKASSPSPLTIGTPESQRKPSIILSKSQLQDTLIHLIKNDSSFLSTLHEVYLQVLTKNKDNHNL
notes: DCP1A (component of the decapping complex), cellular protein co-immunopurified from HEK293T extracts; source: endogenous, HEK293T extract
